# Experiment: soluble on expression in E. coli; label from the status in PepcDB or PDB records
row,Sequence,soluble on expression in E. coli
1,MLIAVPLDDTNFSENLKKAKEKGADIVELRVDQFSDTSLNYVKEKLEEVHSQGLKTILTIRSPEEGGREVKNREELFEELSPLSDYTDIELSSRGLLVKLYNITKEAGKKLIISYHNFELTPPNWIIREVLREGYRYGGIPKIAVKANSYEDVARLLCISRQVEGEKILISMGDYGKISRLAGYVFGSVITYCSLEKAFAPGQIPLEEMVELRKKFYRL,soluble
2,MGSDKIHHHHHHMKVIKFGGSSLASSQQLQKVLAIVEADQKRKYVIVSAPGKRFDGDTKVTDLLIQYARQTIHHQDTQAVTAAIIDRYAEIGHGFNVPEAQLTPIFETIRNLPKQSYADNTYLMAAFKAHGERLNAQLVAAVFQQSGLNARYLDPKDAGMVVTDVPDDAQIIKSSYDQLAKWANSEQILVIPGFFAYNRNGQICTFSRGGSDITGAIIARGVHAERYENFTDVDAIYAVNPSLVAKPAAISEMTFTEMRELSYAGFSVFHDEALIPAIEDNITVNVKNTNHPEAPGTLIQSTREPNPHYPVTGIASSSSFCSLYLRKYLLNKEVGLGRKILTILENHHISYEHMPSGIDDLTIIFDEHQLTPELEKTLVAEISTAINPDEIYFTHDYSILMLVGENMRNRVGIMSRAATALANDNIKLIMVNQGASEISIMFGVHDNDADQAVIALYKEFFD,not soluble
3,MDDATNKKRKVFVSTILTFWNTDRRDFPWRHTRDPYVILITEILLRRTTAGHVKKIYDKFFVKYKCFEDILKTPKSEIAKDIKEIGLSNQRAEQLKELARVVINDYGGRVPRNRKAILDLPGVGKYTCAAVMCLAFGKKAAMVDANFVRVINRYFGGSYENLNYNHKALWELAETLVPGGKCRDFNLGLMDFSAIICAPRKPKCEKCGMSKLCSYYEKCST,soluble
4,MVLDNLGKALANTLKKIARASSVDEALIKELVRDIQRALIQADVNVRLVLQLTREIQRRALEEKPPAGISKKEHIIKIVYEELTKFLGTEAKPIEIKEKPTILLMVGIQGSGKTTTVAKLARYFQKRGYKVGVVCSDTWRPGAYHQLRQLLDRYHIEVFGNPQEKDAIKLAKEGVDYFKSKGVDIIIVDTAGRHKEDKALIEEMKQISNVIHPHEVILVIDGTIGQQAYNQALAFKEATPIGSIIVTKLDGSAKGGGALSAVAATGAPIKFIGTGEKIDDIEPFDPPRFVSRLLGLGDIQGLLEKFKELEKEVEIKEEDIERFLRGKFTLKDMYAQLEAMRKMGPLKQILRMIPGLGYSLPDDVISIGEERLKKFKVIMDSMTEEELLNPEIINYSRIKRIARGSGTSTKDVKELLDQYRQMKKLFKSMNKRQLSRLARRFGM,soluble
5,SPGNRENKEKKVFISLVGSRGLGCSISSGPIQKPGIFISHVKPGSLSAEVGLEIGDQIVEVNGVDFSNLDHKEAVNVLKSSRSLTISIVAAAGRELFMTDR,soluble
6,MGSDKIHHHHHHMGVSHGYVIWPLGSVHLISAIHPDILEKLMTKTLLLYSTVDGQTLAICQRMQTVMTQAGEQVELLSLNDCSGDALTQVDRVLIGASIRYGKHRPELLSFTNTHQDLLNSKMNGFFTVNVVARKPEKNTPATNPYMIKFLQLSAWQPKVLGVFAGKIAYPKYGPFDRFMIRFIMWMTKGPTDTKGTFEFTDWNKVDEFAGSFVKQ,not soluble
7,QGIETVTKANGYETLLAHFSYDELEEERKIASLLSYQVDGLILTESHHTPRTLQMIKNAGVPVVETMELPPQPIDMAVGLDHEDASYNAVKRMLDAGKRTIVYFGARLDTRTKLRMQGYDRAMNEAGLEPKHVLTGVHSSFSLAHDLLERALKTYPTLDGVFCTNDDIAIGTMLSAQQRGIQVPQQLAVVGYNALDIGQTISPKLTSVDTPRFQIGVKSAELLIARLKGEAQEEKVFDMGYQITSGESV,not soluble
8,QRWSLPSLDPFGDRETAIETVGETVETSIDAVDTDSLAIAFSGGVDSALLAARLDAPLYVAGFPDSHDIEAARSAAELLGTEVRVVELTHDAIERAVPEIARATARTNAMDVQIALPLYLVAERVAGDGFDRLALGQGADELFGGYAKVAKAPEDPRVEADTVRGAQREVIASLPDQLERDVLALRAAGVEPVTPLLHDRVIGAALRLDGDLLVDGETRKVALRAAARESLPDEIADRDKKAAQYGSLAARELDRLARQAGYKRRMDDHVTQYVESLVE,not soluble
9,GPGSMKERRSVSQSRTSRTGQLRNGGFRESRFRVALMSRCARPSSSGTSHMFAPSSLPSVGQPSYESGVSSMPNISFPTCNDGALSPGDSMYPPSLPQRAKNKRTGQKDKQKRQSTLGSVDSEEEKRSFLASAAAFRRHRRYNNPFTAYCLASDPYDRPREIERQRQFMSCYKRIACRFVAGGKNALDKPTRYMLGDCVARLYKAVAADWPEADPMVVSSAEDLIVVFMNLDAVRNPVTALRYMNALLKRCDVVRAFDLKKVPEGWDVVTEDGHLMYTFRPPWVGERRFLPDQVAVKKSRGR,not soluble
10,VSSGAGSDATGAGGVHAAGSGDRAVAAAVERAKATAARNIPAFDDLPVPADTANLREGADLNNALLALLPLVGVWRGEGEGRGPDGDYRFGQQIVVSHDGGDYLNWESRSWRLTATGDYQEPGLREAGFWRFVADPYDPSESQAIELLLAHSAGYVELFYGRPRTQSSWELVTDALARSRSGVLVGGAKRLYGIVEGGDLAYVEERVDADGGLVPHLSARLSRFVG,soluble
11,EIVHLGLEDNDFDNDINPLETTGAYLSPKEFKEALLDKDTVVLDTRNDYEYDLGHFRGAIRPDIRNFRELPQWVRDNKEKFMDKRVVVYCTGGVRCEKFSGWMVREGYKDVGQLHGGIATYGKDPEVQGELWDGKMYVFDERIAVDVNHVNPTIVGKDWFDGTPCER,not soluble
12,MDKPQEECGILGLWSEGPVDVAGLLHLGLLALQHRGQEAAGMAVTDGKAFLVEKDLGLVNQVFTEERLGKLRLPEARLGIAHTRYSTTGSNLRINAQPLTARTAHGVLAIAHNGNFTNAKLLRDRLLLEGATFQSTSDTEVMLLLLARMGHLPLPEAAAQAMRLLQGGYSILLMNRKTLLALRDPHGVRPLVLGKAPWGYAFASEPPALLLMGAEYVRDVRPGEVVWVEEGRLQSLQALPPEPAPCAFEWIYFARPDSVLDGTEAYEARVRMGMELFREAPAEADLVVPVPDSGIGAAVGYAKASGLPLEFGLYKNPYAGRTFIQPTQELRDLKTRLKLSPTGAVKGKRVVLVDDSIVRGTTSRRIVRMLKEAGALEVHFRVSSPPIRFPCYYGIDTAARKELIAAEKSVEEIQAYIGADSLAFLSEEGVKRAIGRPVCLACFNGRYPAGVPEEGEKLALELL,soluble
13,MKKAYLVWGMAALLSLGVAQQAGGLTLEGVEALRQEARKAYPVGFVDLAPWKRALEAAEALAKQNPNDLRALRLLAEIYTETQWAIRAWEAWMNYREKGGTWDEAARQAAAKVARTLAFYANQRGDRAEAERWAAQAQAVEAGQ,soluble
14,MITLWGRNNSTNVKKVLWTLEELELPYDQILAGGKFGVNQDADYLAMNPNGLVPLLKDDETDLLLWESNAIVRYLAAQYGQNRLWVDNPARRAEGEKWMDWANQTLSPAHRVILMGLVRTPPEKRDQAAIEAGIEKCDSLFALLDDALAHQPWFSGDNFGTGDIAIAPFVYNLLNVGLKWTPRPNLERWYQQLTERPAFRKVVMIPVT,not soluble
15,MRPRRSLLSVPAINIRALEKIRELDCDGVILDLEDSVAPDMKGKARENLEKLFSGPPFDGRETIIRINPLSTPDGKADLQLVLSCRPDAVLLPKVEQPSDIHDVADFLAEADAPEHLKIWAMIETPLGVLNAASIADAAHTPNARLAAFVIGLNDLRKETHVPRLPGRTYLVPWMMQVILAARAYGLDVIDSVSNDFRDIEAFEAECEQGRAMGFDGKMLIHPAQIEAANRHFGPDEATLAEARAIIAAFAKPESVELNIINMNGQMIERLHVGQAERLVAMADIIAQRKAKKT,not soluble

# Source: the DeepSol protein solubility set
